Literature values, collected in publication PMC10167482.
pKd: −log10 of the molar value.

How the values were obtained:
IFNAR2 (Homo sapiens) = IFNAR2 (Homo sapiens) (UniProt P48551)
IFNAR1 (Homo sapiens) = IFNAR1 (Homo sapiens) (UniProt P17181)
Sequence of UniProt P17181 (P17181 28-436): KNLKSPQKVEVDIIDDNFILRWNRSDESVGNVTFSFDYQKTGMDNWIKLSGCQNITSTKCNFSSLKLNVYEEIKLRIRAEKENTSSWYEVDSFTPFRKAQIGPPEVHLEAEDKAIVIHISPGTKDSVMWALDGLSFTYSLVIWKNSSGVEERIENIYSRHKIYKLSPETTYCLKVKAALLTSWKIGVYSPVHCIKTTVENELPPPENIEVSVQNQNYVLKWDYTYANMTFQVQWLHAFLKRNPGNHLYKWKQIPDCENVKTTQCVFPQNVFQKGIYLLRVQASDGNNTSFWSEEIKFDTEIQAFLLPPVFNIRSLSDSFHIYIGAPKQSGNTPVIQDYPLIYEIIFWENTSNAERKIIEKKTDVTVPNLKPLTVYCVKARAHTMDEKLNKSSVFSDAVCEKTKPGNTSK

Sequence of UniProt P48551 (P48551 27-243): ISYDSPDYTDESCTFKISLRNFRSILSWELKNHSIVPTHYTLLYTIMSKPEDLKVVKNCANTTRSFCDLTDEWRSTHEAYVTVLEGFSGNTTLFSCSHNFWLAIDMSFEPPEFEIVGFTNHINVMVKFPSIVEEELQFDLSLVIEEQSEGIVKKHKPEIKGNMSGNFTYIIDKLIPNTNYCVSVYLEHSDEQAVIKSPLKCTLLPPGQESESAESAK

pKd (IFNAR2 (Homo sapiens)): 9.70
pKd (IFNAR1 (Homo sapiens)): 7.30
Substance: IFN-β (from UniProt P01574)
